The values that follow come from the supplement of paper PMC9170038.

The test system of this data set is MS2 coat protein. Kind of data set: apparent KD of MS2 coat protein; designed switch direction (-1 OFF switch, 1 ON switch): 1; higher = weaker reporter binding. The procedure, abridged:
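Stalled E. coli RNA polymerase transcribed designed RNA switches on Illumina chips, which were then titrated with SNAP-549-labelled MS2 coat protein, doubling from 0.7 or 1.5 nM to 3 µM. Steps lasted from 0.8–1.5 h at the lowest concentration to 10–20 min at the highest. The apparent KD is each design's median over clusters of curve-fitted normalised fluorescence.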

[1] abbreviates: Eterna round: R95, input ligand: FMN 200 uM.
Where [2] appears, read: Eterna round: R95, input ligand: microRNA oligo, concentration not stated.
[3] abbreviates: Eterna round: R95, input ligand: none.
The mark [4] stands for this setting: input ligand: microRNA oligo, concentration not stated.

Regarding “AGAGCCGGCACUGAGGAUAUUCAUAUUAAAACAUGAGGAUCACCCAUGUAGGCCAGAAGGCCUUGGGAGAAGGCAGGUCGGCUCG [Mat - Same State 2 - Mod of UCT - D57] (puzzle: Same State 2)”, the “apparent KD of MS2 coat protein” value under setting [1] came to 23.5 nM, the “apparent KD of MS2 coat protein” value under setting [2] turned out to be 244 nM and the “apparent KD of MS2 coat protein” value under setting [3] was found to be 350 nM.
With “AGAUAGUGUGGAAAGGAUAUACUGUUGAGGACAUGAGGAUCACCCAUGUGGUAGAGGAGGUAAGGGUAGAAGGUUCGGGAUUGGU [JR_SS@_Sub019] (puzzle: Same State 2)”, the “apparent KD of MS2 coat protein” value under setting [1] stood at 32.6 nM, the “apparent KD of MS2 coat protein” value under setting [2] worked out at 34.5 nM and the “apparent KD of MS2 coat protein” value under setting [3] is 47.1 nM.
For “AGAUCAUGACGAGGAUAUGCCACAUGAGGAUCACCCAUGUAUGUGGUAGGACGCGUACGUCCAAAGCAGAAGGCGUCGUGGUCA [JL SSNG2 1.01] (Eterna round: R96, puzzle: Same State NG 2)”, the “apparent KD of MS2 coat protein” value is, setting by setting: (input ligand: FMN 200 uM) 17.2 nM; under setting [4], 28.5 nM; (input ligand: none) 55.5 nM.
The matching figures for “AGAUCAUGACGAGGAUAUGGUACAUGAGGAUCACCCAUGUAUGUACCACGACGGAAACGUCGAAUCCAGAAGGCGUCAUGAUCA [Mat - Same State NG 2 - JL mod - D24] (Eterna round: R96, puzzle: Same State NG 2)”: 30.5 nM, 109 nM and 130 nM.
In the same order, the values of “AGAUCAUGACGAGGAUAUGGUACAUGAGGAUCACCCAUGUAUGUACUAUAACCCGAAUGAGGAAUCCAGAAGGCGUCGUGGUCA [JL SSNG2 1.13] (Eterna round: R96, puzzle: Same State NG 2)” are 24.4 nM, 56.3 nM and 93 nM.
In the same order, the values of “AGAUGUUAAUCAGGAUAUGGGCACAUGAGGAUCACCCAUGUAACGUAGAUACGAUGUGGUCAAGUCUAGAAGGGAUGGCUAACA [SameState NG2 #79] (Eterna round: R96, puzzle: Same State NG 2)” are 49.9 nM, 68.2 nM and 90.7 nM.
Regarding “AGAUGUUAAUUAGGAUAUGGACACAUGAGGAUCACCCAUGUAACGUAGAUACGAUGUGGUCAAGUCUAGAAGGGAUAGCUAACA [SameState NG2 #76] (Eterna round: R96, puzzle: Same State NG 2)”, the “apparent KD of MS2 coat protein” value was 39.9 nM (input ligand: FMN 200 uM), 35.2 nM under setting [4] and 40.3 nM (input ligand: none).
The matching figures for “AGCCGAGACACAGGAUAUAGAUGUCUACAUGAGGAUCACCCAUGUAGCAACACGUGGUAGUGAUUCUAGAAGGGUGCUCGGCGC [Omei SS(NG)2 Cv10] (Eterna round: R96, puzzle: Same State NG 2)”: 13.1 nM, 20.5 nM and 28.7 nM.
The matching figures for “AGCCUGAGUCGAGGAUAUUAUGGAUCCUCUAAUACAUGAGGAUCACCCAUGUAAUUAAUUAUACAUGAGAAGGCGACUCAGGCA [SSNG2/12-A3] (Eterna round: R96, puzzle: Same State NG 2)”: 98.7 nM, 69.4 nM and 25.5 nM.
“AGCGCGAUCUCGCAGGAUAUCCACAUUCCUACAUGAGGAUCACCCAUGUCGCUGCAGGAUAUUAGGGAGAAGGGUGAUGUCGCGC [Arxeinor] (puzzle: Same State 2)”: the “apparent KD of MS2 coat protein” value is 21.4 nM under setting [1], 32.6 nM under setting [2] and 34.8 nM under setting [3].
Consider “AGCUAGUACCGAGGAUAUACGUACAUGAGGAUCACCCAUGUAUACAUGAUUAAAUGAGACUACAUGUAGAAGGCGGUACUAGCA [Mat - Same State NG 2 - JL mod - D48] (Eterna round: R96, puzzle: Same State NG 2)”, for which the “apparent KD of MS2 coat protein” value (input ligand: FMN 200 uM) came out at 15 nM, the “apparent KD of MS2 coat protein” value under setting [4] was determined as 27.1 nM and the “apparent KD of MS2 coat protein” value (input ligand: none) is 48.1 nM.
In the same order, the values of “AGCUAUCGAAAACGAUAGCAAAAGCAUGUACAUGAGGAUCACCCAUGUCAUGUACAAGCUUUUUGCUCGUCUUAAAA [JL zipper 23] (Eterna round: R96, puzzle: Sensor for hsa-mir-208a)” are 919 nM, 14.3 nM and 1000 nM.
On to “AGCUAUCGAAAACGAUAGCAAAAGCAUGUACAUGAGGAUCACCCAUGUCAUGUAUAAGCUUUUUGCUCGUCUUAAAA [Zipper 23 - 12] (puzzle: Sensor for hsa-mir-208a)”, for which the “apparent KD of MS2 coat protein” value reads like this: under setting [1], 42.7 nM; under setting [2], 9.86 nM; under setting [3], 34.4 nM.
For the sequence “AGCUAUCGAAAACGAUAGCAAAAGCAUGUACAUGAGGAUCACCCAUGUCAUGUGCAAGCUUUUUGCUCGUCUUAAAA [Zipper 23 - 4] (puzzle: Sensor for hsa-mir-208a)”, the “apparent KD of MS2 coat protein” value was found to be 163 nM under setting [1], 10.7 nM under setting [2] and 208 nM under setting [3].
Take “AGCUAUUAAUCAGGAUAUGGUCACAUGAGGAUCACCCAUGUAUCGAUGAUAUGAUGUGGUCAAUACUAGAAGGGAUUGCUAACA [SameState NG2 #64] (Eterna round: R96, puzzle: Same State NG 2)”: the “apparent KD of MS2 coat protein” value (input ligand: FMN 200 uM) was 180 nM, the “apparent KD of MS2 coat protein” value under setting [4] is 104 nM and the “apparent KD of MS2 coat protein” value (input ligand: none) worked out at 152 nM.
As to “AGGCCAUCAGGAGGAUAUGGCACCUUAUUGGUGCCAGAAGGUCUAACAUGAGGAUCACCCAUGUGGGUGUGGUCGAAAGACCAC [Fiskers NG1(ss) - 5] (Eterna round: R96, puzzle: Same State NG 1)”, the “apparent KD of MS2 coat protein” value by setting is: (input ligand: FMN 200 uM) 99.9 nM; under setting [4], 71.2 nM; (input ligand: none) 98 nM.
With “AGGCUGAGUCGAGGAUAUUAUGGAUCCUCUAAUACAUGAGGAUCACCCAUGUAAUUAAUUAUACAUGAGAAGGCGACUCAGCCU [SSNG2/12-A4] (Eterna round: R96, puzzle: Same State NG 2)”, the “apparent KD of MS2 coat protein” value (input ligand: FMN 200 uM) worked out at 533 nM, the “apparent KD of MS2 coat protein” value under setting [4] is 15 nM and the “apparent KD of MS2 coat protein” value (input ligand: none) was 34.7 nM.
Regarding “AGGUAACAUGAGGAUCACCCAUGUAAGGUGAACGUAGGAUAUCGAAGAGGUAGAGUAGGACGAGAAGGACGAGGAA [JR_SS1_Sub091] (puzzle: Same State 1)”, the “apparent KD of MS2 coat protein” value runs as follows: under setting [1], 218 nM; under setting [2], 239 nM; under setting [3], 414 nM.
On to “AGUAGUGUAACAUGAGGAUCACCCAUGUAAGAAGAUGUAACCUAGGAUAUGGAUGUUAUGUUUGACCAGAAGGAGGAUUGUUUA [JR_SSNG3_Sub040] (Eterna round: R96, puzzle: Same State NG 3)”, for which the “apparent KD of MS2 coat protein” value was found to be 22.6 nM (input ligand: FMN 200 uM), 32.1 nM under setting [4] and 37.1 nM (input ligand: none).
With “AGUAUACAUGAGGAUCACCCAUGUCAACGUAGUCGAGGAUAUGGGCAGCCGUGAGGCGUACCAGAAGGCGAAGAGA [Mat - Same State 1 - Mod of JL - D5] (puzzle: Same State 1)”, the “apparent KD of MS2 coat protein” value runs as follows: under setting [1], 24.5 nM; under setting [2], 50.5 nM; under setting [3], 68.6 nM.
The matching figures for “AGUCCAGCCAAAGCUGGACAAAAGCAUGUACAUGAGGAUCACCCAUGUCAUGUACAAGCUUUUUGCUCGUCUUAAUA [Mat - hsa-mir-208a - Mod of JL - D38] (puzzle: Sensor for hsa-mir-208a)”: 464 nM, 16 nM and 611 nM.
In the same order, the values of “AGUCCAGCCUGAGCUGGACAAAAGCAUGUACAUGAGGAUCACCCAUGUCAUGUACAAGCUUUUUGCUCAAAAUAAUA [Mat - hsa-mir-208a - Mod of JL - D33] (puzzle: Sensor for hsa-mir-208a)” are 957 nM, 14.8 nM and 607 nM.
In the same order, the values of “AGUCCAGCCUGAGCUGGACAAAAGCAUGUACAUGAGGAUCACCCAUGUCAUGUACAAGCUUUUUGCUCGUCAUAAUA [Mat - hsa-mir-208a - Mod of JL - D28] (puzzle: Sensor for hsa-mir-208a)” are 653 nM, 14.9 nM and 710 nM.
Turning to “AGUCCAGCCUGAGCUGGACAAAAGCAUGUACAUGAGGAUCACCCAUGUCAUGUACAAGCUUUUUGCUCGUCUUAGAA [Mat - hsa-mir-208a - Mod of JL - D26] (puzzle: Sensor for hsa-mir-208a)”, the “apparent KD of MS2 coat protein” value runs as follows: under setting [1], 624 nM; under setting [2], 16.7 nM; under setting [3], 756 nM.
Take “AGUCCAGCCUGAGCUGGACAAAAGCAUGUACAUGAGGAUCACCCAUGUUCAUGUACAAGCUUUUUGCAAGUCAAAAG [Mat - hsa-mir-208a - Mod of JL - 75] (puzzle: Sensor for hsa-mir-208a)”: the “apparent KD of MS2 coat protein” value was 337 nM under setting [1], 25.6 nM under setting [2] and 710 nM under setting [3].
In the same order, the values of “AGUCCAGCCUGAGCUGGACAAAAGCAUGUACAUGAGGAUCACCCAUGUUCAUGUACAAGCUUUUUGCUCGUCUUGUA [salish99_208a_r3_102x] (puzzle: Sensor for hsa-mir-208a)” are 367 nM, 17.2 nM and 483 nM.
In the same order, the values of “AGUCCAGCCUGAGCUGGACAAAAGUAUGUACAUGAGGAUCACCCAUGUCAUGUACAAGCUUUUUGCUCGUCUUAAAA [Zipper 46 - 14] (puzzle: Sensor for hsa-mir-208a)” are 287 nM, 23.6 nM and 377 nM.
